From ChEMBL document CHEMBL1143427, “Interactions of ceftobiprole with beta-lactamases from molecular classes A to D” (Antimicrob Agents Chemother, 2007)

Key:
[1] = substrate: CC1(C)S[C@@H]2[C@H](NC(=O)Cc3ccccc3)C(=O)N2[C@H]1C(=O)O; assay: (§1) Ratio of Kcat to Km of Klebsiella pneumoniae SHV1 assessed as drug hydrolysis by spectrophotometry
[2] = substrate: CO/N=C(\C(=O)N[C@@H]1C(=O)N2C(C(=O)[O-])=C(C[N+]3(C)CCCC3)CS[C@H]12)c1csc(N)n1; assay: as §1
[3] = substrate: Nc1nc(/C(=N/O)C(=O)N[C@@H]2C(=O)N3C(C(=O)O)=C(/C=C4\CCN([C@@H]5CCNC5)C4=O)CS[C@H]23)ns1; assay: as §1
[4] = substrate: O=C(Cc1cccs1)N[C@@H]1C(=O)N2C(C(=O)[O-])=C(C[n+]3ccccc3)CS[C@H]12; assay: as §1
[5] = substrate: CC1(C)S[C@@H]2[C@H](NC(=O)Cc3ccccc3)C(=O)N2[C@H]1C(=O)O; assay: (§2) Activity of Klebsiella pneumoniae SHV1 assessed as drug hydrolysis by spectrophotometry
[6] = substrate: CO/N=C(\C(=O)N[C@@H]1C(=O)N2C(C(=O)[O-])=C(C[N+]3(C)CCCC3)CS[C@H]12)c1csc(N)n1; assay: as §2
[7] = substrate: Nc1nc(/C(=N/O)C(=O)N[C@@H]2C(=O)N3C(C(=O)O)=C(/C=C4\CCN([C@@H]5CCNC5)C4=O)CS[C@H]23)ns1; assay: as §2
[8] = substrate: O=C(Cc1cccs1)N[C@@H]1C(=O)N2C(C(=O)[O-])=C(C[n+]3ccccc3)CS[C@H]12; assay: as §2
[9] = substrate: CC(C)(O/N=C(\C(=O)N[C@@H]1C(=O)N2C(C(=O)[O-])=C(C[n+]3ccccc3)CS[C@H]12)c1csc(N)n1)C(=O)O; assay: (§3) Ratio of Kcat to Km of Escherichia coli TEM1 assessed as drug hydrolysis by spectrophotometry
[10] = substrate: CC1(C)S[C@@H]2[C@H](NC(=O)Cc3ccccc3)C(=O)N2[C@H]1C(=O)O; assay: as §3
[11] = substrate: Nc1nc(/C(=N/O)C(=O)N[C@@H]2C(=O)N3C(C(=O)O)=C(/C=C4\CCN([C@@H]5CCNC5)C4=O)CS[C@H]23)ns1; assay: as §3
[12] = substrate: CC(C)(O/N=C(\C(=O)N[C@@H]1C(=O)N2C(C(=O)[O-])=C(C[n+]3ccccc3)CS[C@H]12)c1csc(N)n1)C(=O)O; assay: (§4) Activity of Escherichia coli TEM1 assessed as drug hydrolysis by spectrophotometry
[13] = substrate: CC1(C)S[C@@H]2[C@H](NC(=O)Cc3ccccc3)C(=O)N2[C@H]1C(=O)O; assay: as §4
[14] = substrate: Nc1nc(/C(=N/O)C(=O)N[C@@H]2C(=O)N3C(C(=O)O)=C(/C=C4\CCN([C@@H]5CCNC5)C4=O)CS[C@H]23)ns1; assay: as §4
[15] = substrate: O=C(Cc1cccs1)N[C@@H]1C(=O)N2C(C(=O)[O-])=C(C[n+]3ccccc3)CS[C@H]12; assay: as §4

B1: Beta-lactamase SHV-1 (Klebsiella pneumoniae), P0AD64 (protein)
chain: MRYIRLCIISLLATLPLAVHASPQPLEQIKLSESQLSGRVGMIEMDLASGRTLTAWRADERFPMMSTFKVVLCGAVLARVDAGDEQLERKIHYRQQDLVDYSPVSEKHLADGMTVGELCAAAITMSDNSAANLLLATVGGPAGLTAFLRQIGDNVTRLDRWETELNEALPGDARDTTTPASMAATLRKLLTSQRLSARSQRQLLQWMVDDRVAGPLIRSVLPAGWFIADKTGAGERGARGIVALLGPNNKAERIVVIYLRDTPASMAERNQQIAGIGAALIEHWQR
For B1, the kcat/Km [1] was 81 s⁻¹ µM⁻¹, the kcat/Km [2] was 0.025 s⁻¹ µM⁻¹ and the kcat/Km [3] was 0.23 s⁻¹ µM⁻¹. It also gave a kcat/Km [4] of 3.1 s⁻¹ µM⁻¹, a Km [5] of 16 µM and a kcat [5] of 1300 s⁻¹. It also gave a Km [6] of 81 µM, a kcat [6] of 2.1 s⁻¹ and a Km [7] of 130 µM. The kcat [7] was 30 s⁻¹, the Km [8] was 160 µM and the kcat [8] was 500 s⁻¹.

B2: Beta-lactamase TEM (Escherichia coli), P62593 (protein)
chain: MSIQHFRVALIPFFAAFCLPVFAHPETLVKVKDAEDQLGARVGYIELDLNSGKILESFRPEERFPMMSTFKVLLCGAVLSRVDAGQEQLGRRIHYSQNDLVEYSPVTEKHLTDGMTVRELCSAAITMSDNTAANLLLTTIGGPKELTAFLHNMGDHVTRLDRWEPELNEAIPNDERDTTMPAAMATTLRKLLTGELLTLASRQQLIDWMEADKVAGPLLRSALPAGWFIADKSGAGERGSRGIIAALGPDGKPSRIVVIYTTGSQATMDERNRQIAEIGASLIKHW
For B2, the kcat/Km [9] was 1.2e-05 s⁻¹ µM⁻¹, the kcat/Km [10] was 100 s⁻¹ µM⁻¹ and the kcat/Km [11] was 0.029 s⁻¹ µM⁻¹. The Km [12] was 200 µM, the kcat [12] was 0.0023 s⁻¹ and the Km [13] was 12 µM. For the same protein, the kcat [13] was 1200 s⁻¹, the Km [14] was 300 µM and the kcat [14] was 8.8 s⁻¹. For the same protein, the Km [15] was 560 µM and the kcat [15] was 980 s⁻¹.
